Data as given in IntAct's records for PubMed 19860830.

B1: Casein kinase I isoform alpha (Oryctolagus cuniculus (Rabbit)), P67828 (parent)
chain: MASSSGSKAEFIVGGKYKLVRKIGSGSFGDIYLAINITNGEEVAVKLESQKARHPQLLYESKLYKILQGGVGIPHIRWYGQEKDYNVLVMDLLGPSLEDLFNFCSRRFTMKTVLMLADQMISRIEYVHTKNFIHRDIKPDNFLMGIGRHCNKLFLIDFGLAKKYRDNRTRQHIPYREDKNLTGTARYASINAHLGIEQSRRDDMESLGYVLMYFNRTSLPWQGLKAATKKQKYEKISEKKMSTPVEVLCKGFPAEFAMYLNYCRGLRFEEAPDYMYLRQLFRILFRTLNHQYDYTFDWTMLKQKAAQQAASSSGQGQQAQTPTGF
partner: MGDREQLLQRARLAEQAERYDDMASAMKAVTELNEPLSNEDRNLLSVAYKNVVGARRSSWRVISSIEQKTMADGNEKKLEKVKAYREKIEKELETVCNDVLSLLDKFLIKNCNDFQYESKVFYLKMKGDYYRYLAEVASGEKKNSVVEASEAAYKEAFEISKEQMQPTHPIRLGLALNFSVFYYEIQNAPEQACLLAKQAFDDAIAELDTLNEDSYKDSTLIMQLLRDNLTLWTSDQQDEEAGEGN

Variants of: B1
Settings: with 1433f_human YWHAH

Row | effect of a mutation on the interaction | Variant
1 | disrupting interaction | MASSSGSKAEFIVGGKYKLVRKIGSGSFGDIYLAINITNGEEVAVKLESQKARHPQLLYESKLYKILQGGVGIPHIRWYGQEKDYNVLVMDLLGPSLEDLFNFCSRRFTMKTVLMLADQMISRIEYVHTKNFIHRDIKPDNFLMGIGRHCNKLFLIDFGLAKKYRDNRTRQHIPYREDKNLTGTARYASINAHLGIEQSRRDDMESLGYVLMYFNRTSLPWQGLKAATKKQKYEKISEKKMATPVEVLCKGFPAEFAMYLNYCRGLRFEEAPDYMYLRQLFRILFRTLNHQYDYTFDWTMLKQKAAQQAASSSGQGQQAQTPTGF [S242A]
2 | disrupting interaction | MASSSGSKAEFIVGGKYKLVRKIGSGSFGDIYLAINITNGEEVAVKLESQKARHPQLLYESKLYKILQGGVGIPHIRWYGQEKDYNVLVMDLLGPSLEDLFNFCSRRFTMKTVLMLADQMISRIEYVHTKNFIHRDIKPDNFLMGIGRHCNKLFLIDFGLAKKYRDNRTRQHIPYREDKNLTGTARYASINAHLGIEQSRRDDMESLGYVLMYFNRTALPWQGLKAATKKQKYEKISEKKMSTPVEVLCKGFPAEFAMYLNYCRGLRFEEAPDYMYLRQLFRILFRTLNHQYDYTFDWTMLKQKAAQQAASSSGQGQQAQTPTGF [S218A]

Variants of: B1
Settings: with 1433f_human YWHAH
Remark: another data set of the same source

Row | effect of a mutation on the interaction | Variant
3 | decreasing interaction | MASSSGSKAEFIVGGKYKLVRKIGSGSFGDIYLAINITNGEEVAVKLESQKARHPQLLYESKLYKILQGGVGIPHIRWYGQEKDYNVLVMDLLGPSLEDLFNFCSRRFTMKTVLMLADQMISRIEYVHTKNFIHRDIKPDNFLMGIGRHCNKLFLIDFGLAKKYRDNRTRQHIPYREDKNLTGTARYASINAHLGIEQSRRDDMESLGYVLMYFNRTALPWQGLKAATKKQKYEKISEKKMSTPVEVLCKGFPAEFAMYLNYCRGLRFEEAPDYMYLRQLFRILFRTLNHQYDYTFDWTMLKQKAAQQAASSSGQGQQAQTPTGF [S218A]
